Measurements published in patent publication US20120156198A1 (Hoffmann-La Roche, published 2012).

How the values were obtained:
Assay in all cases: ELISA, hFc fusion protein captured on anti-human Fc
[1] = target: T1, rhIL-1R3/hFc (R&D Systems, Cat. No. 676-CP) (human, UniProt Q9NPH3 21-359, limits assumed)
T1 construct: Bought; not shown: human Fc (hFc) of the commercial protein
T1 sequence (looked up): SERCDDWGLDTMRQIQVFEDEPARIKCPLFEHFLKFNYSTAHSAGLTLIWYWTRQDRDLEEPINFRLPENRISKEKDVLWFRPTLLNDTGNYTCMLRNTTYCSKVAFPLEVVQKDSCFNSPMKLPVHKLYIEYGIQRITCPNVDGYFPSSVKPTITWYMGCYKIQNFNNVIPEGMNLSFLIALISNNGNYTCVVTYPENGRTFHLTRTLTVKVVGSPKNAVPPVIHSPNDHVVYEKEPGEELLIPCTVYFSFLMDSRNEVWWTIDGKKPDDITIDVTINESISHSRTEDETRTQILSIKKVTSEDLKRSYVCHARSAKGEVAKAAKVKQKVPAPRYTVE
Protocol: (§1) The test was performed on 384-well microtiter plates (MaxiSorp™, Thermo Scientific Nunc, DK, Cat. No. 464718) at RT. After each incubation step, plates were washed 3 times with PBST. At the beginning, plates were coated with 0.5 μg/ml goat anti-human IgG Fc fragment (Jackson 1 mm. Res., US, Cat. No. 109-006-170) for at least 2 hours (h). Thereafter the wells were blocked with PBS supplemented with 0.2% Tween®-20 and 2% BSA (Roche Diagnostics GmbH, DE) for 1 h. 0.2 μg/ml of recombinant human IL-18Rα-Fc fusion protein (R&D Systems, UK, Cat. No. 816-LR) was captured on plate for 1 h. For testing the binding of antibodies to other proteins of the IL-1 receptor family 0.2 μg/ml of the following recombinant human proteins conjugated to human Fc (hFc) were captured: [0194] rhIL-1RI/hFc (R&D Systems, UK, Cat. No. 269-1R) [0195] rhIL-1sRII/hFc (R&D Systems, UK, Cat. No. 263-2R) [0196] rhIL-1R3/hFc (R&D Systems, UK, Cat. No. 676-CP) [0197] rhIL-2Rα/hFc (R&D Systems, UK, Cat. No. 1020-RL) [0198] rhIL-7Rα/hFc (R&D Systems, UK, Cat. No. 306-IR) [0199] rhIL-15R/hFc (R&D Systems, UK, Cat. No. 147-IR) [0200] rhST-2/hFc (R&D Systems, UK, Cat. No. 523-ST)
(§2) After washing the plate, dilutions of purified antibodies in PBS with 0.05% BSA and 0.2% Tween®-20 were incubated with the receptor proteins for 1 h. Binding of antibodies was detected with 1:2000 diluted horseradish peroxidase (HRP)-conjugates of anti-mouse IgG (GE Healthcare, UK, Cat. No. NA9310V). After 1 h the plates were washed 6 times with PBST and developed with freshly prepared BM Blue® POD substrate solution (BM Blue®: 3,3″-5,5″-Tetramethylbenzidine, Roche Diagnostics GmbH, DE, Cat. No. 11484281001) for 30 minutes at RT. Absorbance was measured at 370 nm. The values were corrected for the control without antibody.

[2] = target: T2, rhIL-2Rα/hFc (R&D Systems, Cat. No. 1020-RL) (human, UniProt P01589 22-213)
T2 construct: Bought; not shown: human Fc (hFc) of the commercial protein
T2 sequence (looked up): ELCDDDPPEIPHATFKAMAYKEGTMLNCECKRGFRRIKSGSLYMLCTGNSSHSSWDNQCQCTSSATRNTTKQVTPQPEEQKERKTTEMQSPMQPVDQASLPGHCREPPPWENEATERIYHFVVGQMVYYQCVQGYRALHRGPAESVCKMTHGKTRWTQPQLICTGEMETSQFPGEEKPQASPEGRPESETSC
Protocol: as §1, §2

[3] = target: T3, rhST-2/hFc (R&D Systems, Cat. No. 523-ST) (human, UniProt Q01638-2 19-328, limits assumed)
T3 construct: Bought; not shown: human Fc (hFc) of the commercial protein
T3 sequence (looked up): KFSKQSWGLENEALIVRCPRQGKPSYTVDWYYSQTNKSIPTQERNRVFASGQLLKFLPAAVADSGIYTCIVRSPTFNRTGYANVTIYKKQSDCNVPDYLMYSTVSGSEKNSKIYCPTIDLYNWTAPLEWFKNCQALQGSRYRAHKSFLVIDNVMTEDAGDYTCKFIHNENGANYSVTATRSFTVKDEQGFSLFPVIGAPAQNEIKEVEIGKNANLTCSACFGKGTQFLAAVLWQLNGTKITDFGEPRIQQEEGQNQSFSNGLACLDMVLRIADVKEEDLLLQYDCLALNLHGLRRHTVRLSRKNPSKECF
Protocol: as §1, §2

absorbance at 370 nm (corrected for the control without antibody) [1]: 0.02
absorbance at 370 nm (corrected for the control without antibody) [2]: 0.02
absorbance at 370 nm (corrected for the control without antibody) [3]: 0.02
B1: Mab 2D11 (antibody, V domains shown)
VH: QVQLQQPGAELVKPGASVKMSCKASDYTFTSNWMHWVKQRPGQGLEWIGTIDPSDSYTYYNQKFKGKATLTVDTSSSTAYMHLSSLTSEDSAVYYCTTSGDYDADRYFDVWGAGTTVTVSS
VL: DIVLTQSPASLGVSLGQRATISCRASKSVSTSGDSYMHWYQQKPGQSPKLLIYLASNLESGVPARFSGSGSGTDFTLNIHPVEEEDAATYYCQQSRELPLSFGAGTKLELK
notes: Monoclonal antibody from immunized NMRI mice; detected with anti-mouse IgG1-PE / anti-mouse IgG; also called F20.2D11
